Test results reported in publication doi:10.1101/2025.04.14.648677 (bioRxiv, 2025).
Values belong to the molecule of their own block, whether it stands above or below them.

How the values were obtained:
[1] = molecular target: IRE1β_LD, wildtype (analytical SEC) (not stated (human numbering used; mouse IRE1β_LD used in cells)); experiment: SEC
AUC = molecular target: the molecule itself; experiment: AUC
[2] = molecular target: T1, AGR2 H117Y (not stated (human or mouse AGR2 made)), O95994; experiment: SEC; settings: remark: other sources report otherwise
T1 chain: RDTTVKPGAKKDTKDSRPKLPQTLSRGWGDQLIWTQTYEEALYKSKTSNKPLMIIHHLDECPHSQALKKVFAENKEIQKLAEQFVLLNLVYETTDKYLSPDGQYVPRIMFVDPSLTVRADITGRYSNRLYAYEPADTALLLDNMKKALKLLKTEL

SEC-SAXS = molecular target: the molecule itself; experiment: SEC-SAXS

B1: mouse AGR2 (residues 21-175), AUC (natural protein, UniProt O88312 21-175, looked up)
chain: KDTTVKSGAKKDPKDSRPKLPQTLSRGWGDQLIWTQTYEEALYRSKTSNRPLMVIHHLDECPHSQALKKVFAEHKEIQKLAEQFVLLNLVYETTDKHLSPDGQYVPRIVFVDPSLTVRADITGRYSNRLYAYEPSDTALLYDNMKKALKLLKTEL
binding result (AUC): binds

B3: Human AGR2^41-171 (domain or fragment, UniProt O95994 41-171, looked up)
chain: PQTLSRGWGDQLIWTQTYEEALYKSKTSNKPLMIIHHLDECPHSQALKKVFAENKEIQKLAEQFVLLNLVYETTDKHLSPDGQYVPRIMFVDPSLTVRADITGRYSNRLYAYEPADTALLLDNMKKALKLL
stoichiometry N (SEC-SAXS): 2

Other lines, results leading:

stoichiometry N [1]: 2
Molecule: IRE1β_LD, wildtype (analytical SEC) (domain or fragment)

stoichiometry N [2]: 2
B2: AGR2 H117Y, O95994 21-175 (natural protein)
chain: T1 chain
